This data set concerns the molecule itself. As to the kind of experiment: SEC-MALS; SEC-MALLS and refractometry; Superdex 75 10/30 column, 20°C, 0.5 ml/min; fractions pooled from two peaks obtained after preparatory size-exclusion chromatography; dimer and monomer.

B1: VgrG2b C-terminal domain (VgrG2bC-ter) (domain or fragment)
chain: VGETQRRFVLKQLDGQTAMPNVPYTITMANGEVIEGVTDAEGATQLLQKDAMNIAKVDMKHTKSPASAVAGIAAAVGAAVAVGKLLGGPDAEAGRALSEGEISLAKGVFGDSIDYSTVRLRDEDYVPWQGKDYVMAPNGHIYFGEELRGVADWSLESLQRQGLFIHEMTHVWQHQHGVNVLLVGAYQQARQFLLGDQYAYRLEPGKTLKDYNIEQQGDIVRDYFLEKNEFGEASANSRFAGVLKNFPTGY
notes: VgrG2b of Pseudomonas aeruginosa PAO1, C-terminal domain, residues 770-1,019; Monomeric and dimeric species were both found in solution; also called VgrG2b metallopeptidase domain; source: E. coli BL21 (λDE3) pET28a-vgrG2bC-ter, purified (Ni2+-NTA, SEC); not shown: His6, C-terminal, cleaved
By stoichiometry N is commonly meant the number of molecules, sites or subunits per partner or assembly. Consider B1, for which the “stoichiometry N” value was 2.

Values taken from paper PMC6899460, “The Pseudomonas aeruginosa T6SS Delivers a Periplasmic Toxin that Disrupts Bacterial Cell Morphology” (Cell Reports, 2019).
